Experiment: soluble fraction after stress (log2 fold change); higher = more stays soluble; pooled small domains, quantitative proteomics
Settings: stress: 75 degC
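Further: 20 min heating vs room temperature control held 20 min.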

HMITASNYFIEVERIGIETLPETLKKGHDLVVKSTSNGTNWANYQTSEGIKKVIDLYFQKLNEYANTV
soluble fraction (log2): -1.83

HMITDSSEIEAMVDALVKENPGQAEQYKDGNMKVAGWFIGQIMKVSKGKANPQLVGDLLKKKLG
soluble fraction (log2): 0.197

HMITERVPVPDLTGMPLMEAIKTLNSSKLQYQVVGSVIEGDENRIIDQTPKPDIMVSEKSIVLLYLETYRG
soluble fraction (log2): -2.6

HMITIDADTGKRVYTRKEVADLVGASTQSIRLWEDAGAIPASVRDEGGYRYWYEEDLEAIKAYAS
soluble fraction (log2): -0.203

HMITKAIELAEEAEKETVWLGVWEHNHPAQKFYQSLGFVKTDEHDFYMGNERHTDYTMTKQLK
soluble fraction (log2): -0.344

HMITLKKRRQEAILEIIEKYDLSTQDELLQKLKDSGFDATQATVSRDIKELRLVKTMGANGQYKYAVT
soluble fraction (log2): -0.881

HMITMADKIDTALSEMAANNEKINVSQVAKRLGISNSAIYKFNPEKIPDIQTAQKRQKHKAEAIAVGTEN
soluble fraction (log2): -0.0393

HMITMWYYKKDGNIIGPASARKIASMRELGIITDSTPVSRKRNAKNWETFGGLSEKINLESSQWD
soluble fraction (log2): -1.98

HMITNEDINIKKLLVVMKDTPLSANEIMDKLNIKSKETLRNMYLDPAIKKGLINLTIPDKPTSKNQKYYK
soluble fraction (log2): -0.426

HMITNESEIERIVEAIISKNPESIAQYRSGITKVLGFLVGQVMKETKGRANPALVNRIIISKME
soluble fraction (log2): -0.899

HMITSELALVKLVVKGANRVEALRVAETFRARALDVTLSSFVFELTGKPSKLDAFIGLMRSLGDTEILKR
soluble fraction (log2): -4.17

HMIVEIVPSALHGERVDRIVAFILDVSRSVASGLVERGAVHVDGSVETSGKVRLVEGQEVSVDPSQVPG
soluble fraction (log2): -0.69

HMIVNEQEQTFIKAMRDDDFNTILELKMKGYQPSDNVLKSLQPDISSTTFIAAAKIFQMERMLK
soluble fraction (log2): -0.502

HMIVSVPNVRGMGESKAAAALQNRGLLVSIDYESSTSASQGEVIRQSISPGTEVTKGSSITIIIAVSPN
soluble fraction (log2): -1.56

HMIVVMQPGATKEQVQAVIDRVAEFGFQTKLAPGAERMVIGVVGSPLPDTLKEALERLPGVEEVIRVSKR
soluble fraction (log2): -0.379

HMIVVTSPQVTDERIAEIVAFIEKHGVQAHVSRGTDRTVIGIIGKADPVLAEHLRSMQGVENVIKIS
soluble fraction (log2): -0.167

HMIYKLTLLRDLPEAKAGFDFYLRGGLASHDGEEWFSWVTREPIYARLYWLYVEKREEWVLVEETDI
soluble fraction (log2): -4.51

HMIYMIDPNDEIAVKLDEIYQRYLNRTIDPEGLIFFYNQIRNAQMGYSDVEKRILESPEYVSIPK
soluble fraction (log2): -0.53

HMIYQNVINLLKNRLNSSIYNIGDLLPSEKELAEHYDVSRNTLRKALKTLEEEGMIERRHGSGTYLRNK
soluble fraction (log2): -1.67

HMIYWGTMVDKIYEVLSLAGKPLSLMEIYQQVKVFFPNSTKSSIEASMRLDARHRFKYDVEGHVYSLVD
soluble fraction (log2): -3.44

HMIYYTEEELVKRYIDFSNYLGKKEGASDVDFKKYAVEFGIPSRDHYNRKFITLFNLKIKAGYKPIRH
soluble fraction (log2): -0.835

HMKAAQDQDQAATLLQKATGVNQDQAKLAATVLFKEQSVTPIRQAIASGDYYQAYQDAKSLQQQ
soluble fraction (log2): 0.221

HMKADIEQVQRAFDTLDPKNQQLVLDAMKAATAELDPNSDQFKTNTEFINDNQKALDRHAKAS
soluble fraction (log2): 0.122

HMKAGAVFNEGDVLYPKIGGLKLMAAAGEGGKVVATLAKTDEMIYMGEEQSGFVKVESGSGSGWVKKILVA
soluble fraction (log2): 0.438

HMKAGEDAVQKAVLEAVAESAAAVADYKAGSERALNFIVGKVMKKTRGKASAAEVHRLVREEVDR
soluble fraction (log2): 0.0653

HMKAILHQESRSGFANATVIGGLDKFLDTNWNQLSKYIKKIETPYSDRSLEDRKIWISTILGILSTEI
soluble fraction (log2): 0.279

HMKALHEEIAEKIQEQILRSNLAPGDKLDTELELAARYGVSRSTIRQALIQLESAGLIDRLHGRGTFVAD
soluble fraction (log2): 0.59

HMKAPDSQYKPLTDFQTDASFQKLDAYLRNRYPAMLANAVVYDVLRTPDAISYRVNYQVDNKMITINAAVT
soluble fraction (log2): -1.66

HMKAPLTFVIEGKEYEAFDQYKTGAELKQLAGIPLDTELFLSISKPYQDELIENEKQVNLARPETEYFFVK
soluble fraction (log2): 0.522

HMKAQTVPQFVGMTMTEAEEKASELGITLIEGAVVDSVEPKDTILTQDVDEGTEITGKMEIMVTISS
soluble fraction (log2): 0.324

HMKARLRRVFQIYYGDAYSIMKALKETFPLQTIVHEPRTNSIVVDTPDEETATKIGDVVSAL
soluble fraction (log2): -0.771

HMKDANIQIGKRLREARLNMNLEKSEIADVLGVTVEHYRKLEAGVMGISVDKVLTLYHKYGIDPTYLITG
soluble fraction (log2): -3.36

HMKDEGSLKVIGQMVVIGIPQSEAKRFANTYTVAQIRAALQYTQKRSEDKNASKLENVAAYFRQALVRNWG
soluble fraction (log2): -2.57

HMKDHKSKWMAKTELDSIAKNLSKKHAISLDYEEDGTRFYAGGQSPLGIGRLFTVFVAPRNGHWSDQLR
soluble fraction (log2): 0.194

HMKDLIGEAKAKELALGHAKLSASDVTFIHVELDWENGRRVYDVEFYSGAKEYDYEIDAKTGEIVSFDY
soluble fraction (log2): -1.23

HMKDLQHLVGEKGTTVTPLRPSGIALIKGSRYDVVSEGSFIQQGVAVEVIKVEGRRVVVSPLQED
soluble fraction (log2): -0.722

HMKDLSMPDVMGSSLNDAKKALTELGIMDITVRYVESGSSEGSIVGMEPPAGSKFAADGKVVLQVSSGS
soluble fraction (log2): 0.542

HMKDMKISTQNILKELATNYPDQTAFRKNVIESTAKSMGYTGKDFYPMLTAETRVKIGTYDLSALLQTV
soluble fraction (log2): -0.38

HMKDPSFELMSVAESFYRSGNVDHAVYALEKYLEVYADGDYTDRAHDLLSQARKGLTYPHGYPPLQI
soluble fraction (log2): -1.26

HMKDRDISNAVLNILSKDSDHNYNYKQIASVLGVKDPFVRKRIVSVLAQLTKNGQLEEISRGKYQIKN
soluble fraction (log2): -0.478

HMKDRNISSSVLEILSKDPDHTYNYKQIAALLGVKDAFIRKRIVTLLAQLAKDGHLDEISRGKYQIK
soluble fraction (log2): -1.22

HMKDVVAPMSGRVVRLMVAAGDEVVKRQALVVVEAMKMENVLTAPKEGRIKKVPVREGMTVEVGQTLVSFE
soluble fraction (log2): -1.88

HMKDYKSALQELIQSGDKRVISYHTLKETGPSHNREFEAAVKLDGNIILGVGKGKTKKEAEQNAAHEALKK
soluble fraction (log2): -0.0221

HMKDYKSSLQERVQAVGGGQLIYRVNREEGPDHSKTFYMDLFLGDRLIGTGSGRNKKQAEQQAAKEAIERG
soluble fraction (log2): -0.283

HMKDYKTIFQELIQKKHKTSPIYKSYEYNDMFKAEVYVNDKSFADGIGKSKKEAETDAAKKALEKIEMA
soluble fraction (log2): -0.0428

HMKDYQGEISVVASGERIDVYLFNYFNLFSRTKIKNHIKNGNILVNENIISPSYILKQNDKIAFNLGAPY
soluble fraction (log2): -2.27

HMKDYQGNILIQSEGDRIDKFLFKYFNSFSRTKIKNHIINGNILVNDKNTIPAYVLKINDKISYDLSTSVK
soluble fraction (log2): -1.9

HMKEAITVIGGKNNITFDASAQAEIGIYSMDGVQIQKKTISDNERIDLPAGMYVVTVKTGQANVSKVVVV
soluble fraction (log2): -0.553

HMKEDSTIIERIISNLSSASLKTQKAFEYKLTDLMFRFSEGEYEWSSAMEVIREELLPFLNK
soluble fraction (log2): 0.0891

HMKEETEMVTIPDVTGKPLTEAANLLREAKLDYLAESTGTSVTKQMPLPGAEVMVNTTVLLYTG
soluble fraction (log2): 0.157

HMKEEVMVPNVVGKELSAALLEMQVKELYPKLQLKYSNFVDDKGTVLEQSPPAGSIVKAGRRINLVVSRGA
soluble fraction (log2): 0.106

HMKEIKAPNKINAHLIEEWRSQHPTELFPEEKVDLIYYKGEEYYFVIEEKNELGEIEEWYFAYDGGIDYV
soluble fraction (log2): 0.372

HMKEILTNESIIQFVKDKVSEEQIIYKINNSPIDFKLDVNSMVSLAKQNVSSTIIIAMENAMNN
soluble fraction (log2): -1.28

HMKELLQEMIMDILRAIASPNIDIKRKTLDLVLDLITPRNIDNVTGMLKTEVVKSQSENTSDVG
soluble fraction (log2): -1.58

HMKELTYSDFRKAYPDIQGNLFGMAERYITALDWTEVAAKVETDEELRKERDIFYLVKTYIRKYVQ
soluble fraction (log2): -1.86

HMKELVAGQTVRVHHSIGFGQTGTVTALNSLKTTLPNGLRTNTASILFQNNEKVVLPISNFDIIES
soluble fraction (log2): -0.0164

HMKELVEDFASRISNARQSKGWNQSELAKRMAETVNVVKSAESGKSPTDSVIKKLERVLGIILM
soluble fraction (log2): -0.778

HMKEQLITVYVSGAVARPGLYELPAGIRAQEAVEAAGGFTEAANHEKVNLAKKLKDGSQVNVPALK
soluble fraction (log2): -0.122

HMKEQYDLNDREQQFISLVANGLNNKEIAETLFLSEGTVRNYLSNLLDKLGLRDRTQLAIFFYQHL
soluble fraction (log2): -2.01

HMKERLLDPYKDFIVNYLQKYPYTPAAVMHDKLKESYPDFPKVDPKTIYNFVMLLRRDFNIPKV
soluble fraction (log2): -0.842

HMKETERKILQAVLGLPLKYRDVIHLFYYEEMSVKEIAEVLHRQESTVTSQLTRARGILKKNL
soluble fraction (log2): 0.264

HMKETLSDTVSRKLEDMITTQMKAGNRLPTEMVLAEMYSVGRSTIRESLKALSSKGLIVRKKDGTFVSDRV
soluble fraction (log2): -0.422

HMKEVKAPMPGMVLRVEVAPGQEVQEGDPLLVLEAMKMENNLKSPASGTIKSVHVEAGKAVEKGAVLVVF
soluble fraction (log2): -0.0661

HMKEVKRDQVIEAARKLFHQFGFKKVSMDEIAKEAGVTKKTIYMYFESKEELLKYFIQEEISN
soluble fraction (log2): -0.373

HMKEVVKVTITPSEKLKSQYPDALVSIDGKFYDLGILNNPVEFYMDKDHKISIIWSTAELVESFRI
soluble fraction (log2): -0.000631

HMKEYRKEGHLYFVTEDRNNEIYLWDFTDKPKHEFKEIITSVELQKVAKEGAMLQYKNGKYELYS
soluble fraction (log2): -0.78

HMKFDVNAAIRAVLNVTVDKGATLERIMKETNLTSDQLVLPIALLMKTERLHFKRSGTHEVYVSVGKAPDK
soluble fraction (log2): -3.79

HMKFGEQIKERRQELDLTQAEVAEKLFVTRQAVSNWEHNKTYPDLNMLVKISNVYQISLDSLLR
soluble fraction (log2): -1.37

HMKFHENLIALRRREGWSQEELGNRIGVTRQTVSKWELGLTTPELEKLVQLADVFGMTTDQLVGR
soluble fraction (log2): -0.295

HMKFNLWLSEKLKKLGLTQRKLAEQAGVSPATVSRWLSGEFEPDLTNLRKINQVLGVPERELFLQLGL
soluble fraction (log2): -0.193

HMKFPNVGENLRLLRQEMGISLDKASKMTGVSKAMLGQIERGESSPTVSTLWKISSGFKINFTTLLSE
soluble fraction (log2): -2.92

HMKFPPASDIRRMRKAIDVTQTELAKQSGVSQSTIAKIERGRISASYDTVVKLFETLDEMAK
soluble fraction (log2): -0.405

HMKFTPPTLEQIKNEMLLKTDEYNADIQSDRFFTYYDSNGWMVGKNKMKKFLVSLVAVFAATSA
soluble fraction (log2): -0.786

HMKFYIHEIIGFNAVDKVAGIVGKVININEDSPQKKLVVNYNGKEVFIPLVDEIVRKIDKQKNEVLITMP
soluble fraction (log2): 0.00585

HMKGEIEELLYEEVTKDNNTTFLRIYIKLNDEYNTLLNLGIIGIKTEEKVNELVNLGYKKVL
soluble fraction (log2): -4.19

HMKGISRVTMELIIDALKKETEPRTVQWIAEKTGLATQTTYRYLQYMVSEQTVEALNVYGKVVSLKAK
soluble fraction (log2): -0.649

HMKGKWKPIILWQLSKAPQSLSGLRHSIAGISQKMLIQHLNELIHFGFVVRTTFEGYPLKVEYDLTDRGR
soluble fraction (log2): -0.196

— the domain aggregation screens of Martell et al. (2025)
